Laboratory results: patent US20240174767A1

Target: β2AR wild type (wt) receptor (human) (UniProt P07550)
Experiment: cell-based or functional assay

## MbNb80^cHopQ (designed binder)
  apparent potency shift: IC50 of epinephrine for β2AR-wt alone divided by the IC50^high of epinephrine for β2AR-wt in the presence of MbNb80^cHopQ ([3H]-DHA competition): 2000 fold
  apparent potency shift: IC50 of isoprotenerol for β2AR-wt divided by the IC50^high of isoprotenerol for β2AR-wt in the presence of MbNb80^cHopQ ([3H]-DHA competition): 2000 fold
